Test results as given in US20130123472A1 (GlaxoSmithKline, published 2013).
Changes are numbered by the printed parent chain. Values belong to the binder of their own block, whether it stands above or below them. Where no end group is shown, it is not given here.

What was measured:
[1] = molecular target: T1, peptide MA3#2 conjugated to KLH (human, also: conjugated to KLH); test: ELISA, hybridoma supernatant on 0.5 µg/well peptide-KLH
T1 construct: MAGE-A3 residues 163-180 with an added N-terminal residue; by an error of synthesis it lacks the Ile of position 177; also called MAGE-A3 peptide #2; peptide #2
T1 peptide: CGIELMEVDPIGHLYFAT

MAGE-A1 = molecular target: T2, MAGE-A1 (human, UniProt P43355 1-309); test: Western blot, lysates of transiently transfected HEK 293 cells
T2 construct: In lysates of transiently transfected HEK 293 cells; construct not described
T2 sequence: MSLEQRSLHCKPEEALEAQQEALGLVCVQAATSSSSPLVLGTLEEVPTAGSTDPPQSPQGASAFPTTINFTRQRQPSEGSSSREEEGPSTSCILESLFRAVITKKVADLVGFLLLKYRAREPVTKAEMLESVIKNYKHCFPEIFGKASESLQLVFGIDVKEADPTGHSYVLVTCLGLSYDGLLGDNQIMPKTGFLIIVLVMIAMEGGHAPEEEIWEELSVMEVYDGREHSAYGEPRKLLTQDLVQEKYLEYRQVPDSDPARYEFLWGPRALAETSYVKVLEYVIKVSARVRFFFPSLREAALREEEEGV
Experimental: (§1) The specificity of mAbs 1B1, 16G7 and 23D2 were tested in Western blot analyses on HEK 293 cells transiently transfected with plasmids encoding MAGE-A1, A2, A3, A4, A6, A8, A9, A10, All and A12. Non-transfected cells were used as a control. Between 25 and 85 μg of lysates of transfected or non-transfected cells were electrophoresed on SDS-PAGE and transferred onto nitrocellulose. Immunodetection was performed by incubation of the blots with each of mAbs 1B1, 16G7 and 23D2. Immunodetection was additionally performed using a mixture of mAbs that together recognized all of the MAGE-A antigens expressed by the transfectants (see Table 6 for mAbs in this mixture).
(§2) Method: mini-gels were prepared with 10% acrylamide in the running gel and 4.5% acrylamide in the stacking gel. Samples were prepared in 40 μl of loading buffer (reducing conditions), the gel was loaded and migrated at 100V in the stacking gel and 200 V in the running gel. Proteins were transferred onto nitrocellulose at 100 mA during one hour at 4° C., and the membrane incubated in TBS-5% skimmed milk, and incubated with antibody diluted in TBS-1% skim milk for one hour at room temperature.

MAGE-A4 = molecular target: T3, MAGE-A4 (human, UniProt P43358 1-317); test: as above
T3 construct: In lysates of transiently transfected HEK 293 cells; construct not described
T3 sequence: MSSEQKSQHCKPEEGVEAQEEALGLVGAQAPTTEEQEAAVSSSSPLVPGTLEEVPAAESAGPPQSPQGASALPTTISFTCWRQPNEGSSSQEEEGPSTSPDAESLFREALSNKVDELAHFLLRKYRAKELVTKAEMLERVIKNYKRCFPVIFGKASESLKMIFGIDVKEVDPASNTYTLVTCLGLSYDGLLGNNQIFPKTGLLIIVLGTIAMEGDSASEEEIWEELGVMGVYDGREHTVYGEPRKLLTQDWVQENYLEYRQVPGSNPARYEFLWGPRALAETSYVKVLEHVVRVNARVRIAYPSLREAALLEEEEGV
Experimental: as §1, §2

MAGE-A8 = molecular target: T4, MAGE-A8 (human, UniProt P43361 1-318); test: as above
T4 construct: In lysates of transiently transfected HEK 293 cells; construct not described
T4 sequence: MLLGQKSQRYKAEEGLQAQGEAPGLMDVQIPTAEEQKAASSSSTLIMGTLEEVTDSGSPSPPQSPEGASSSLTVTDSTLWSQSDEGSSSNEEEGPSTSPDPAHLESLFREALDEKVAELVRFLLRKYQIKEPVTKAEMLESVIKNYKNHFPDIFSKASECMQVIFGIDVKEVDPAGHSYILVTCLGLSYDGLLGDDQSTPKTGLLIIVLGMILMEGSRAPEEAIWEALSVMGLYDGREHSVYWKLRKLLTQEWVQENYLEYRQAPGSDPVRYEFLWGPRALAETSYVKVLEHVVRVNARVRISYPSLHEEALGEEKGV
Experimental: as §1, §2

MAGE-A9 = molecular target: T5, MAGE-A9 (human, UniProt P43362 1-315); test: as above
T5 construct: constructs not described
T5 sequence: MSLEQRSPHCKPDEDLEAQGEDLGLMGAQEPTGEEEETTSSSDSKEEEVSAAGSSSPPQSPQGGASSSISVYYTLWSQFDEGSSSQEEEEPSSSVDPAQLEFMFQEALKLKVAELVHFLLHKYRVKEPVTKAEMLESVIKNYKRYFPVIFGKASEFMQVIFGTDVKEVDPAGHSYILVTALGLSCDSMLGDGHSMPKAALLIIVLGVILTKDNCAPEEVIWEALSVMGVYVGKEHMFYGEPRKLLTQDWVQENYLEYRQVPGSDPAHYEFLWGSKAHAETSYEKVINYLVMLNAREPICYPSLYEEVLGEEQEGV
Experimental: as §1, §2

MAGE-A10 = molecular target: T6, MAGE-A10 (human, UniProt P43363 1-369); test: as above
T6 construct: In lysates of transiently transfected HEK 293 cells; construct not described
Experimental: as §1, §2

MAGE-A11 = molecular target: T7, MAGE-A11 (human, UniProt P43364 1-429); test: as above
T7 construct: In lysates of transiently transfected HEK 293 cells; construct not described
T7 sequence: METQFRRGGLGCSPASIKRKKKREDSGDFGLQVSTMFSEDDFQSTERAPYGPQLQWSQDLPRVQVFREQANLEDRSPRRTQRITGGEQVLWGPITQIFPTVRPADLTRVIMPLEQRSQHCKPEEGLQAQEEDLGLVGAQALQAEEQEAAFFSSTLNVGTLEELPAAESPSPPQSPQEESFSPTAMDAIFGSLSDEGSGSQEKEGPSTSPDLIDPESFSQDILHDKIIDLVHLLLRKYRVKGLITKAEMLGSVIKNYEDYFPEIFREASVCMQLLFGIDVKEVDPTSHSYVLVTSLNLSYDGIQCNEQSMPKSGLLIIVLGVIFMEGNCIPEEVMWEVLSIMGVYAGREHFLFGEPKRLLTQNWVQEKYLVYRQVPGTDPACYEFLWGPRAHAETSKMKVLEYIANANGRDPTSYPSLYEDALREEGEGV
Experimental: as §1, §2

MAGE-A6 = molecular target: T8, MAGE-A6 (human, UniProt P43360 1-314); test: as above
T8 construct: In lysates of transiently transfected HEK 293 cells (Western blot); also endogenous MAGE-A6 in K562 lysate; Construct not described
Experimental: as §1, §2

[2] = molecular target: T9, peptide MA3#1 conjugated to KLH (human, also: conjugated to KLH); test: ELISA, clone culture supernatant on coated antigen, GAM IgG-HRP, OD 405 nm
T9 construct: MAGE-A3 residues 137-147 with added residue(s) at the N-terminus for linkage to the carrier; also called MAGE-A3 peptide #1; peptide #1
T9 peptide: CGSVVGNWQYFF
Experimental: (§3) Wells of a Nunc MAXISORP™ 96-well were coated with antigen. The antigen was diluted in Tris-buffered saline (TBS) at 0.1 μg/50 μl for purified recombinant MAGE proteins, or at 0.5 μg/50 μl for peptides conjugated to KLH, and distributed at 50 μl per well and dried overnight at 37° C. The wells were washed several times in TBS and 50 μl of TBS-1% casein was added to each well. Wells were incubated for 1 hour at 37° C. and washed again several times in TBS.
(§4) In total, 75 clones from Example 5 that grew easily after transfer into 24-well plates were tested two days later in ELISA for reactivity with the following antigens: recombinant MAGE-A3, recombinant MAGE-A2; recombinant MAGE-A12; peptide MA3 #1 conjugated to KLH; peptide MA3 #2 conjugated to KLH; and peptide MA3#3 conjugated to KLH.
(§5) For each clone, 50 μl of culture medium supernatant was transferred into a well of a 96-well plate containing 0.1 μg/well of one of the recombinant MAGE proteins or 0.5 μg/well of one of the peptides conjugated to KLH. As positive control, 50 μl of 57B hybridoma supernatant was tested on each of the antigens.

[3] = molecular target: T10, peptide MA3#3 conjugated to KLH (human, conjugated to keyhole limpet haemocyanin (KLH)); test: as above
T10 construct: MAGE-A3 residues 73-90 with two added residues at the N-terminus for linkage to the carrier; also called MAGE-A3 peptide #3; peptide #3
T10 peptide: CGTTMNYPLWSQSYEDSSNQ
Experimental: as §3, §4, §5

[4] = molecular target: T11, MAGE-A2 recombinant protein (LVL313) (human, UniProt P43356 1-314); test: as above
T11 construct: Purified full-length recombinant protein in ELISA and Western blot; the same id is used for MAGE-A2 in lysates of transfected HEK 293 cells; also called recMA2
Experimental: as §3, §4, §5

[5] = molecular target: T12, MAGE-A12 recombinant protein (LVL314) (human, UniProt P43365 1-314); test: as above
T12 construct: Purified full-length recombinant protein in ELISA and Western blot; the same id is used for MAGE-A12 in lysates of transfected HEK 293 cells; also called recMA12
Experimental: as §3, §4, §5

[6] = molecular target: T1, peptide MA3#2 conjugated to KLH; test: as above
Experimental: as §3, §4, §5

[7] = molecular target: T13, full-length recombinant MAGE-A3 protein (human, UniProt P43357 1-314); test: ELISA, biotinylated mAb 23D2 on 0.1 µg/well recombinant MAGE-A3, OD 405 nm
T13 construct: Full-length recombinant protein (made in baculovirus or E. coli, GSK); Also used here for endogenous MAGE-A3 in GERL cell lysate and for summary statements on MAGE-A3; also called recMA3; MA3
Experimental: An ELISA against MAGE-A3 was then performed using dilutions of biotinylated mAb 23D2 ([…], 0.1, 0.15, 0.2, 0.25 and 0.3 μg/50 μl) to determine useful conditions of use of the biotinylated mAb 23D2.

T6 sequence (P43363 whole entry R166K/V234I): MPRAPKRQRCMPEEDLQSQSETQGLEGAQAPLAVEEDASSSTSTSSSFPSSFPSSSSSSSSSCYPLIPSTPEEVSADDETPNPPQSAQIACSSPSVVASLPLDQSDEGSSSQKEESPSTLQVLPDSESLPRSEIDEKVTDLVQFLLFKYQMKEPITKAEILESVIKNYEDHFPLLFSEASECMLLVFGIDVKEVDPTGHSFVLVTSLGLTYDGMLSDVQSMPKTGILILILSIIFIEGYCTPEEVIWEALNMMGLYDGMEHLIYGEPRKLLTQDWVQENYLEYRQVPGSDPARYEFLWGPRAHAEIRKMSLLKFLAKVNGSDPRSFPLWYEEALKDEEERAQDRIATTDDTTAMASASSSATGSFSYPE
T11 sequence (P43356 whole entry): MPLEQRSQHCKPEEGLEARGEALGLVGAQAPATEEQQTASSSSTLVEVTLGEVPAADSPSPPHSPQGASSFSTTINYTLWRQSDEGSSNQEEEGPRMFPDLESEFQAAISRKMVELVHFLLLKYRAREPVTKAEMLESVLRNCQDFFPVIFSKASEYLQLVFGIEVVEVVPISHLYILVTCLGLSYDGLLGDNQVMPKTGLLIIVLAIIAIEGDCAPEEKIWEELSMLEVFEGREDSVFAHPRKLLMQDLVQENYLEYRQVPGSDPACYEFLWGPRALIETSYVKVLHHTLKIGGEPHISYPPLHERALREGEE
T12 sequence (P43365 whole entry): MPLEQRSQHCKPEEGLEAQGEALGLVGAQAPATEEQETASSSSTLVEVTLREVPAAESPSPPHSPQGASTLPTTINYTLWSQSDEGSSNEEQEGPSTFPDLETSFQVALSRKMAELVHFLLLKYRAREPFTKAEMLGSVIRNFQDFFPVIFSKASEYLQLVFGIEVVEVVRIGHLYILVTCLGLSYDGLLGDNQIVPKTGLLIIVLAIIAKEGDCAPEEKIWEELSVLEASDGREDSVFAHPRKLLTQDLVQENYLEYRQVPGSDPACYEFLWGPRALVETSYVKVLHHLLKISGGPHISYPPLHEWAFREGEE
T8 sequence (P43360 whole entry Y283N): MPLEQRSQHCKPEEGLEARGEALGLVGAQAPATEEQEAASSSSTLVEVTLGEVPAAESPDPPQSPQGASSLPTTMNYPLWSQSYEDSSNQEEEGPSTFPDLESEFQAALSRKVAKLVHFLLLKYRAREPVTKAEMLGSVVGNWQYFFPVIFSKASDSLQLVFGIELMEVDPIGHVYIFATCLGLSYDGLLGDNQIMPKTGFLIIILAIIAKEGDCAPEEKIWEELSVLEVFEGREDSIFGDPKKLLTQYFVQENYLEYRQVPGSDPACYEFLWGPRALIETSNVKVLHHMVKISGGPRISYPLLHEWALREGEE
T13 sequence (P43357 whole entry): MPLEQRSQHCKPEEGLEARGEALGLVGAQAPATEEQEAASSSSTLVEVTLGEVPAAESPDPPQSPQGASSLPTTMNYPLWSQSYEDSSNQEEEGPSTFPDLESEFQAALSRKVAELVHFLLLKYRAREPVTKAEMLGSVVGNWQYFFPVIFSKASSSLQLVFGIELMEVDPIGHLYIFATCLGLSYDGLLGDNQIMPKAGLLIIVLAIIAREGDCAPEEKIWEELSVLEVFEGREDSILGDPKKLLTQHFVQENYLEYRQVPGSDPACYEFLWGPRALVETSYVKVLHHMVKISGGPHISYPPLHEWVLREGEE

- binding result [1]: no binding
- binding result (MAGE-A6): binds
- binding result [2]: no binding
- binding result [3]: binds
- binding result [4]: no binding
- binding result [5]: no binding
B1: mAb 1B1 (antibody, IgG1, V domains shown)
VH: DVQLQESGPGLVKPSQSLSLTCTVTGYSITSDYVWNWIRQFPGNKLEWMGYIGHSGRTSYNPSLKSRISITRDTSKNQFFLQLNSVTSEDTATYYCARGGNNGFAYWGQGTLVTVSA
VL: DIVMTQSPSSLTVTAGEKVTMSCKSSQSLLNSGNQKNYLTWYQQKPGQPPKLLIYWTSTRDSGVPDRFTGSGSGTDFTLTISSVQAEDLAVYYCQNDYSYPPTFGGGTKLEIKR
notes: Tested as hybridoma supernatant; also called clone 1B1; hybridoma 1B1
- binding result (MAGE-A1): no binding (tested: Between 25 and 85 µg of lysates)
- binding result (MAGE-A4): no binding (tested: Between 25 and 85 µg of lysates)
- binding result (MAGE-A8): no binding (tested: Between 25 and 85 µg of lysates)
- binding result (MAGE-A9): no binding (tested: Between 25 and 85 µg of lysates)
- binding result (MAGE-A10): no binding (tested: Between 25 and 85 µg of lysates)
- binding result (MAGE-A11): no binding (tested: Between 25 and 85 µg of lysates)

- binding result (MAGE-A6): binds
- binding result [2]: no binding
- binding result [6]: no binding
- binding result [3]: binds
- binding result [4]: no binding
- binding result [5]: no binding
B2: mAb 16G7 (antibody, IgG1, V domains shown)
VH: EVMVVESGGGLVKPGGSLKLSCAASGFTFRTNAMSWVRQTPEKRLEWVATITSGGGSTYYPVSVKGRFTISRDNAKNTLYLQMSSLRSEDTAIYYCVRQDYFDYWGQGTFVIVSS
VL: QAVVTQESALTTSPGETVTLTCRSSTGAVTSTNYANWVQEKPDHLFTGLIGGTNNRAPGVPARFSGSLIGDKAALTITGAQTEDEAIYFCALWYSNHWVFGGGTKLTVL
notes: also called clone 16G7; hybridoma 16G7
- binding result (MAGE-A1): no binding (tested: Between 25 and 85 µg of lysates)
- binding result (MAGE-A4): no binding (tested: Between 25 and 85 µg of lysates)
- binding result (MAGE-A8): no binding (tested: Between 25 and 85 µg of lysates)
- binding result (MAGE-A9): no binding (tested: Between 25 and 85 µg of lysates)
- binding result (MAGE-A10): no binding (tested: Between 25 and 85 µg of lysates)
- binding result (MAGE-A11): no binding (tested: Between 25 and 85 µg of lysates)

- binding result (MAGE-A6): binds
- EC50 (read off the curve) [7]: ~0.006 µg/50 µl
- binding result [2]: no binding
- binding result [6]: no binding
- binding result [3]: binds
- binding result [4]: no binding
- binding result [5]: no binding
B3: mAb 23D2 (antibody, IgG2a, V domains shown)
VH: DVKLVESGGGLVKPGGSLKVSCVASGFTFSSYTMSWVRQTPEKRLEWVATITSGGGSSYYPDSVKGRFTISRDNAKNTLYLQITSLKSEDTAMYYCTSGGGVLLRLPLFAYWGQGTTLTVSS
VL: B2 VL with S31A, T32S, L45S, T53I, S95N
modifications: In the FIG. 8 ELISA and the FIG. 9 competition assay the antibody was biotinylated; the sites are not stated and the letters do not carry them.
notes: also called clone 23D2; hybridoma 23D2
- binding result (MAGE-A1): no binding (tested: Between 25 and 85 µg of lysates)
- binding result (MAGE-A4): no binding (tested: Between 25 and 85 µg of lysates)
- binding result (MAGE-A8): no binding (tested: Between 25 and 85 µg of lysates)
- binding result (MAGE-A9): no binding (tested: Between 25 and 85 µg of lysates)
- binding result (MAGE-A10): no binding (tested: Between 25 and 85 µg of lysates)
- binding result (MAGE-A11): no binding (tested: Between 25 and 85 µg of lysates)
